Laboratory results reported in patent publication US20040110923, “Nucleic acid binding polypeptides” (published 2004).

What was measured:
Settings in all cases: tags: HA tag (YPYDVPDYA) at C-terminus; label: biotin
[1] = molecular target: T1, TNFR1-7-9 six-zinc finger peptide (synthetic construct); assay: fluorescence ELISA; 50 uM ZnCl2, RT
Description: (§1) DNA binding reactions contained the appropriate zinc finger peptide, biotinylated binding site (10 nM) and 5 μg competitor. DNA (sonicated salmon sperm DNA), in a total volume of 50 μl, which contained: 1×PBS (pH 7.0), 1.25×10⁻³ U high affinity anti-HA-Peroxidase antibody (Boehringer Mannheim), 50 μM ZnCl₂, 0.01 mg/ml BSA, and 0.5% Tween 20. Incubations are performed at room temperature for 40 minutes. Black streptavidin-coated wells are blocked with 4% marvel for 1 hour. Binding reactions are added to the streptavidin-coated wells and incubated for a further 40 minutes at room temperature. Wells are washed 5 times in 100 μl wash buffer (1×PBS (pH 7.0), 50 μM ZnCl₂, 0.01 mg/ml BSA, and 0.5% Tween 20), and finally 50 μl QuantaBlu peroxidase substrate solution (Pierce) is added to detect bound HA-tagged zinc finger peptide. ELISA signals are read in a SPECTRAmax GeminiXS spectrophotometer (Molecular Devices) and analysed using SOFTmax Pro 3.1.2 (Molecular Devices).
(§2) Zinc finger peptides are expressed using the T7 TNT Quick Coupled Transcription/Translation System for PCR templates (Promega) and assayed for DNA-binding by fluorescence ELISA, as described above in Examples 4 and 6. Sequences of the DNA target sites used in each binding reaction are shown below FIG. 3A.

[2] = molecular target: CXCR4-5-1 six-zinc finger peptide (synthetic construct); assay: fluorescence ELISA; 10 nM site, 50 uM ZnCl2, salmon sperm competitor, RT
Description: as §1
as §2, with “ELISA (see above; FIG. 1). Binding is plotted vertically, on a relative scale.” for “ELISA, as described above in Examples 4 and 6.”, “the figure. […]” for “FIG. 3A.”

[3] = molecular target: CXCR4-10-1 six-zinc finger peptide (synthetic construct); assay: as above
Description: as §1
as §2, with “ELISA (see above; FIG. 1). Binding is plotted vertically, on a relative scale.” for “ELISA, as described above in Examples 4 and 6.”, “the figure. […]” for “FIG. 3A.”

[4] = molecular target: T1, TNFR1-7-9 six-zinc finger peptide; assay: fluorescence ELISA; control site; signal only in figure, text states specific binding
Description: as §1, §2

[5] = molecular target: TNFR1-9-12 six-zinc finger peptide (synthetic construct); assay: as above
Description: as §1, §2

[6] = molecular target: TNFR1-4-2 six-zinc finger peptide (synthetic construct); assay: fluorescence ELISA; 50 uM ZnCl2, RT
Description: as §1, §2

T1 sequence (chain, as listed by the source): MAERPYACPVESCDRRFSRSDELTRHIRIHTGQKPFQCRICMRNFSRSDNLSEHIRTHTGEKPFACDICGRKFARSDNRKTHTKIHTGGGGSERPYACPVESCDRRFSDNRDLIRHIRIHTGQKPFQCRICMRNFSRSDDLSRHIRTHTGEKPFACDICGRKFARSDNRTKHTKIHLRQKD
Chain of TNFR1-9-12 six-zinc finger peptide (synthetic construct) (chain, as listed by the source): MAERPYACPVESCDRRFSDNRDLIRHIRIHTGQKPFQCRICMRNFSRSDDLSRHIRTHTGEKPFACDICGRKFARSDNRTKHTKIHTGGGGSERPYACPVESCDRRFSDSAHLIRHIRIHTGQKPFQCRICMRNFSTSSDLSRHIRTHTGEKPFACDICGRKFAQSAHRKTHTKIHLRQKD
Chain of TNFR1-4-2 six-zinc finger peptide (synthetic construct) (chain, as listed by the source): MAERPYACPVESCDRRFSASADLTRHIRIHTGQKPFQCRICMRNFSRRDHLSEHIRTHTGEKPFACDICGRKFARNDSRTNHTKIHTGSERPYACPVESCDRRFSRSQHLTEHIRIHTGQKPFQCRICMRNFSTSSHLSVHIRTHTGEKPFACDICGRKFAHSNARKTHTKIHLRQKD
Chain of CXCR4-10-1 six-zinc finger peptide (synthetic construct) (chain, as listed by the source): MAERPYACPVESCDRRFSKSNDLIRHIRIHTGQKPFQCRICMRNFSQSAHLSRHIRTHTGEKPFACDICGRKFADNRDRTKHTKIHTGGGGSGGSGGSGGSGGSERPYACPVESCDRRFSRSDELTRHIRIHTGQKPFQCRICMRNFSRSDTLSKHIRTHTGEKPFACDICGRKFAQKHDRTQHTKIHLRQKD
Chain of CXCR4-5-1 six-zinc finger peptide (synthetic construct) (chain, as listed by the source): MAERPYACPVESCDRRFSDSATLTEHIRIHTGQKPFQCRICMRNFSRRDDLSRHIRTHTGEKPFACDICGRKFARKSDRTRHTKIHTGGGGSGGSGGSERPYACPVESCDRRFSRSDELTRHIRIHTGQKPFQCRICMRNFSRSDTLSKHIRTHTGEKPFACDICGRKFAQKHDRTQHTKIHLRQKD

B1: TNFR1 site 7-9 / 7-10 (dsDNA)
DNA 1: TGGAGGAGGAGGCCACAGGAGGCGGGAGGA
DNA 2: TCCTCCCGCCTCCTGTGGCCTCCTCCTCCA
**Q.** Does B1 bind [1]?
**A.** binds

B2: CXCR4-5-1 target site (dsDNA)
DNA 1: CCGCCCCAGCGGCGCATGCGCCGCGCTCGGAGCGTGTT
DNA 2: AACACGCTCCGAGCGCGGCGCATGCGCCGCTGGGGCGG
**Q.** Does B2 bind [2]?
**A.** binds

B3: CXCR4-10-1 target site (dsDNA)
DNA 1: CCGCCCCAGCGGCGCATGCGCCGCGCTCGGAGCGTGTT
DNA 2: AACACGCTCCGAGCGCGGCGCATGCGCCGCTGGGGCGG
**Q.** Does B3 bind [3]?
**A.** binds

B4: TNFR1 site 4-2 (dsDNA)
DNA 1: GTCGGATTGGTGGGTTGGGGGCACAAGGCA
DNA 2: TGCCTTGTGCCCCCAACCCACCAATCCGAC
**Q.** Does B4 bind [4]?
**A.** no binding

**Q.** Does B4 bind [5]?
**A.** no binding

**Q.** Does B4 bind [6]?
**A.** binds
